Reference: patent publication US20180305460A1 (Teva, published 2018)
Residue numbers refer to the chain shown, from its start. Numbers in names are those of the source.

B1: X02.74 (antibody, human IgG4 S228P, V domains shown)
VH: QLQLQESGPGLVKPSETLSLTCTVSGGSISSSSYYWSWIRQHPGKGLEWIGYIYYSGSTNYNPSLKSRVTISVDTLKNQISLRLTSVTAADTAVYYCARVGGAGGWPLEVWGQGTTVTVSS
VL: QAVLTQPASLSASPGESARLTCTLPSDINVRYYNIYWYQQKPGSPPRYLLYYYSDSHKGQGSGVPSRFSGSKDVSTNSGILLISGLQSEDEADYYCMTWSSNGSGVFGGGTQLTVLG
notes: IgG4 S228P; VH M(100C)L, D101E relative to X02.1
B2: X02.76 (antibody, human IgG4 S228P)
heavy: not shown
VL: B1 VL
notes: IgG4 S228P; VH M(100C)L relative to X02.1
B3: X02.77 (antibody, human IgG4 S228P)
heavy: not shown
VL: B1 VL
notes: IgG4 S228P; VH D101E relative to X02.1
B4: X02.68 (antibody, human IgG4 S228P, V domains shown)
VH: B1 VH with T23K, L108M, E109D
VL: B1 VL
notes: IgG4 S228P; VH T23K relative to X02.1
B5: X02.70 (antibody, human IgG4 S228P)
heavy: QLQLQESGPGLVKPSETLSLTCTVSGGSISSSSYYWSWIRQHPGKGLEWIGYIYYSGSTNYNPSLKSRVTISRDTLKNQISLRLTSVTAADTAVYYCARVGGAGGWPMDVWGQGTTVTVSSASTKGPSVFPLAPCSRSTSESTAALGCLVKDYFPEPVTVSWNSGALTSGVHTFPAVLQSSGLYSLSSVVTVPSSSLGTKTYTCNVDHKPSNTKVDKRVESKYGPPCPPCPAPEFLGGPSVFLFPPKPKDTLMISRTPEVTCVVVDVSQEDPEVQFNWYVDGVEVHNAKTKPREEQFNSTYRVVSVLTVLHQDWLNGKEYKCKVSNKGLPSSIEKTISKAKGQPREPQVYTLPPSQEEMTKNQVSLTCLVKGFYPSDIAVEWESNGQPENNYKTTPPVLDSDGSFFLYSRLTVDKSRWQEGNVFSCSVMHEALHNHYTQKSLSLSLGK
VL: B1 VL
notes: IgG4 S228P; VH V71R relative to X02.1
B6: X02.72 (antibody, human IgG4 S228P)
heavy: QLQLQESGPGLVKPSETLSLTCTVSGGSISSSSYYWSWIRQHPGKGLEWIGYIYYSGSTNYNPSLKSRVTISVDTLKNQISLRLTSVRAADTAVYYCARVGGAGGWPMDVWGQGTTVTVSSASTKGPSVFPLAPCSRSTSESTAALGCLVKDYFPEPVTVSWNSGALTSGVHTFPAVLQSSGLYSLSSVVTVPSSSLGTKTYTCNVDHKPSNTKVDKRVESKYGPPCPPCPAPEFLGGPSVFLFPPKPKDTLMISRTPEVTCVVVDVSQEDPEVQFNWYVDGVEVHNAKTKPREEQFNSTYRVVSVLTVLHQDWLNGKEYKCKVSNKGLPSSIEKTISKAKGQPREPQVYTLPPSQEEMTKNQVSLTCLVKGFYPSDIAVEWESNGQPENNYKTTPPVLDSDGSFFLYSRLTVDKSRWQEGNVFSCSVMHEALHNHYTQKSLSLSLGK
VL: B1 VL
notes: IgG4 S228P; VH T83R relative to X02.1
B7: X02.73 (antibody, human IgG4 S228P)
heavy: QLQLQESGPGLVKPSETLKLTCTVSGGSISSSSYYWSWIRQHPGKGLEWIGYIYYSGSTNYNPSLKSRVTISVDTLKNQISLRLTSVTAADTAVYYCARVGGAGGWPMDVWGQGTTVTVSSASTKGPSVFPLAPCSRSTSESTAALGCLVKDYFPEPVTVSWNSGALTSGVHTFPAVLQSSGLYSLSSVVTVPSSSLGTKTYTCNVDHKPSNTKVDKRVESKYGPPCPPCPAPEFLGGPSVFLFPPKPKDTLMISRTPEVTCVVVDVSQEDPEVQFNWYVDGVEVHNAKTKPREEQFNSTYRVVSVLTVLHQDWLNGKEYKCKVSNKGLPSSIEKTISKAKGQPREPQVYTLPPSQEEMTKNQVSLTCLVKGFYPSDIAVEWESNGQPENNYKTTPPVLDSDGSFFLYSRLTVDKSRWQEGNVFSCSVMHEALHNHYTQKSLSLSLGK
VL: B1 VL
notes: IgG4 S228P; VH S19K relative to X02.1
B8: X02.75 (antibody, human IgG4 S228P)
heavy: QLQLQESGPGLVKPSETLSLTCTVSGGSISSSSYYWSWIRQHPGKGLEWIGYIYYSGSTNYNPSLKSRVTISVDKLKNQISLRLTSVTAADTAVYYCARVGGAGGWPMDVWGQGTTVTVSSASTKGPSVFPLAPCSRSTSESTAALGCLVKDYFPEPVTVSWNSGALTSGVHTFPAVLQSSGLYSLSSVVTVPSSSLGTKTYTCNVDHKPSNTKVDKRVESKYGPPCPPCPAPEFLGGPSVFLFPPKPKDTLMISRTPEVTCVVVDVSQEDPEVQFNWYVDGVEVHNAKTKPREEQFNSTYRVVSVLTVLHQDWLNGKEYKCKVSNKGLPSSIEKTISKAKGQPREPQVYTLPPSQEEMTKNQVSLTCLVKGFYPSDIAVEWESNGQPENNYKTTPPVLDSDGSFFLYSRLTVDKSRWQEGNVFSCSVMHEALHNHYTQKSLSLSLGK
VL: B1 VL
notes: IgG4 S228P; VH T73K relative to X02.1
B9: X02.11 (antibody, human IgG4 S228P)
heavy: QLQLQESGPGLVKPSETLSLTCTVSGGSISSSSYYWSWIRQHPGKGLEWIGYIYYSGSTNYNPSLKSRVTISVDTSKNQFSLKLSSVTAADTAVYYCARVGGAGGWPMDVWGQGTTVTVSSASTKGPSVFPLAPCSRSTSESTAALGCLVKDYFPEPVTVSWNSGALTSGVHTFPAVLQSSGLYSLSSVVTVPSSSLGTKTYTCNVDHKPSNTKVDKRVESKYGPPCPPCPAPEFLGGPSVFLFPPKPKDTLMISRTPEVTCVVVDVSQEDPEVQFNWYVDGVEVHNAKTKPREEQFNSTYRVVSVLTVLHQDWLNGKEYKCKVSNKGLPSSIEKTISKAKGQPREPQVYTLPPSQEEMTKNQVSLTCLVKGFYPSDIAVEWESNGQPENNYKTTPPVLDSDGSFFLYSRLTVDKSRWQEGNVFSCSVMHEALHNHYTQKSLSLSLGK
VL: B1 VL
notes: IgG4 S228P; VH L74S, I78F, R81K, T(82A)S relative to X02.1
B10: X02.8 (antibody, human IgG4 S228P)
heavy: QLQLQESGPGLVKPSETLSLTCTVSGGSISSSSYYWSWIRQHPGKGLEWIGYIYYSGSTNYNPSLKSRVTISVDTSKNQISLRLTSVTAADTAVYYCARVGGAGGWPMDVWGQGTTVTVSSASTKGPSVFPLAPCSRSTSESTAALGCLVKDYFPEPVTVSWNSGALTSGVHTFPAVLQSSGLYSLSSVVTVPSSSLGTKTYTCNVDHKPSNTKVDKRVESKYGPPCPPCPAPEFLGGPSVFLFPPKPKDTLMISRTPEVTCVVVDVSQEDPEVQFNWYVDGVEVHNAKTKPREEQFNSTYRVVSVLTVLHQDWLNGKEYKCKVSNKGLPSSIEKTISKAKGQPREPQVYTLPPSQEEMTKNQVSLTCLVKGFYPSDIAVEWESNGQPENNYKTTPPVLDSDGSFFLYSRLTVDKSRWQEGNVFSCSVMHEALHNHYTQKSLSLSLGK
VL: B1 VL
notes: IgG4 S228P; VH L74S relative to X02.1
B11: X02.83 (antibody)
heavy: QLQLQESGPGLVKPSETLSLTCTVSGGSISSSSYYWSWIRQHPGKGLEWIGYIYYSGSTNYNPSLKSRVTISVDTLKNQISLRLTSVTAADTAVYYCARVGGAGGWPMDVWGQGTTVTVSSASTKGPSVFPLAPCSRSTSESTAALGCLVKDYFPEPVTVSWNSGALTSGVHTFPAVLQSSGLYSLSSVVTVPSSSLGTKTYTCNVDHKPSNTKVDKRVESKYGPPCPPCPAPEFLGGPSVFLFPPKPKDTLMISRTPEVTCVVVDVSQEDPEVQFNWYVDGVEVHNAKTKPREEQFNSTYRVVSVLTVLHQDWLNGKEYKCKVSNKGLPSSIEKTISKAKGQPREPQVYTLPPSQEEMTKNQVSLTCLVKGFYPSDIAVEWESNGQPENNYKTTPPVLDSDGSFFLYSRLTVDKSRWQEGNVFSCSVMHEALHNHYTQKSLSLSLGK
VL: B1 VL with E16A
notes: IgG4 S228P with the X02.1 VH; VL E17A relative to A02.1
B12: X02.85 (antibody, V domains shown)
VH: B1 VH with L108M, E109D
VL: QAVLTQPASLSASPGESARLTCTLPSDINVRYYNIYWYQQKPGSPPRYLLYYYSDSHKGQGSGVPSRFSGSKSTNSGILLISGLQSEDEADYYCMTWSSNGSGVFGGGTQLTVLG
notes: IgG4 S228P with the X02.1 VH; VL residues D(L66A) and V(L66B) of A02.1 are deleted
B13: X02.82 (antibody, V domains shown)
VH: B1 VH with L108M, E109D
VL: B1 VL with Y51R
notes: IgG4 S228P with the X02.1 VH; VL Y49R relative to A02.1
B14: X02.9 (antibody, human IgG4 S228P)
heavy: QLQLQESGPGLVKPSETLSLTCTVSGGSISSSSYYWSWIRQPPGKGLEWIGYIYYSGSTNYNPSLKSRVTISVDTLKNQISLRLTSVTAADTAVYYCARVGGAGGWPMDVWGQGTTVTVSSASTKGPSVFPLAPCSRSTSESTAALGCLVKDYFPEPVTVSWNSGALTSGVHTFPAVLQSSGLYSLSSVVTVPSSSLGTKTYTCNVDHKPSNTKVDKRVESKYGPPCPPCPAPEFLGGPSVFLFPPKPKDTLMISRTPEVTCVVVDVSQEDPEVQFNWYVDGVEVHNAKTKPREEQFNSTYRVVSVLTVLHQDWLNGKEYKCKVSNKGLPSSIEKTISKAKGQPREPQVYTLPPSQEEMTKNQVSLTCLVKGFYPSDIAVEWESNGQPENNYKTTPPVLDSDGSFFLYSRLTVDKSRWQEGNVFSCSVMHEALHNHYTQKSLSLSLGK
VL: B1 VL
notes: IgG4 S228P; VH H40P relative to X02.1
B15: X02.10 (antibody, human IgG4 S228P)
heavy: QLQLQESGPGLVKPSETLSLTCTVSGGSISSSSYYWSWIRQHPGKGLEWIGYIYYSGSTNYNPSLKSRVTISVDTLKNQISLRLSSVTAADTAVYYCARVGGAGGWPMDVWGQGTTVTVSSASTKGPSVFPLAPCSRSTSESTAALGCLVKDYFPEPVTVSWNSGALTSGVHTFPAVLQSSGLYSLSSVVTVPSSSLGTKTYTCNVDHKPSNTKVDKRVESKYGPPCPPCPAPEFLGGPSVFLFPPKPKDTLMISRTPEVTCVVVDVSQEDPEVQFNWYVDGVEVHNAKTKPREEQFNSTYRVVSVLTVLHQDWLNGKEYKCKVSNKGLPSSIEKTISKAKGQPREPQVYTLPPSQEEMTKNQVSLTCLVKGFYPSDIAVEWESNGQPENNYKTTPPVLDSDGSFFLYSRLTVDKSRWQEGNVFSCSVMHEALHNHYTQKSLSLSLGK
VL: B1 VL
notes: IgG4 S228P; VH T(82A)S relative to X02.1
B16: X02.108 (antibody, human IgG4 S228P, V domains shown)
VH: B1 VH with I80F, L108M, E109D
VL: B1 VL
notes: IgG4 S228P; VH I78F relative to X02.1
B17: X02.110 (antibody, human IgG4 S228P, V domains shown)
VH: B1 VH with R83K, L108M, E109D
VL: B1 VL
notes: IgG4 S228P; VH R81K relative to X02.1
B18: X02.86 (antibody, V domains shown)
VH: B1 VH with L108M, E109D
VL: B1 VL with D27G
notes: IgG4 S228P with the X02.1 VH; VL D(27A)G relative to A02.1
B19: X02.91 (antibody, V domains shown)
VH: B1 VH with L108M, E109D
VL: B1 VL with P25R
notes: IgG4 S228P with the X02.1 VH; VL P26R relative to A02.1
B20: X02.71 (antibody, human IgG4 S228P)
heavy: not shown
VL: B1 VL
notes: IgG4 S228P; VH I29V relative to X02.1
B21: X02.101 (antibody, V domains shown)
VH: B1 VH with L108M, E109D
VL: B1 VL with V74A
notes: IgG4 S228P with the X02.1 VH; VL V(66B)A relative to A02.1
B22: X02.102 (antibody, V domains shown)
VH: B1 VH with L108M, E109D
VL: B1 VL with T76A
notes: IgG4 S228P with the X02.1 VH; VL T68A relative to A02.1
B23: X02.96 (antibody)
heavy: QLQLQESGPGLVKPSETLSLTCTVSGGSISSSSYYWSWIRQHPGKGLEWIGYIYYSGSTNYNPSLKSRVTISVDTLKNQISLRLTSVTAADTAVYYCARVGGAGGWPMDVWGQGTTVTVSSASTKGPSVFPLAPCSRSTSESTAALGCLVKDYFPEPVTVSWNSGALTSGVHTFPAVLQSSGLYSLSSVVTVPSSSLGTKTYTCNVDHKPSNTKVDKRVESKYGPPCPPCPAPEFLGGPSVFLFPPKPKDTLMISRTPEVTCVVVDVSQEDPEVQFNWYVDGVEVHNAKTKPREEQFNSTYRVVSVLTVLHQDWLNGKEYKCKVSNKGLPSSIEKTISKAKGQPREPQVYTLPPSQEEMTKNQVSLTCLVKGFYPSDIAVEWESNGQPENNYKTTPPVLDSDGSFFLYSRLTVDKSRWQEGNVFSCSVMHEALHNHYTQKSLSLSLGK
VL: B1 VL with A8P
notes: IgG4 S228P with the X02.1 VH; VL A8P relative to A02.1
B24: X02.103 (antibody, V domains shown)
VH: B1 VH with L108M, E109D
VL: B1 VL with S78T
notes: IgG4 S228P with the X02.1 VH; VL S70T relative to A02.1
B25: X02.95 (antibody)
heavy: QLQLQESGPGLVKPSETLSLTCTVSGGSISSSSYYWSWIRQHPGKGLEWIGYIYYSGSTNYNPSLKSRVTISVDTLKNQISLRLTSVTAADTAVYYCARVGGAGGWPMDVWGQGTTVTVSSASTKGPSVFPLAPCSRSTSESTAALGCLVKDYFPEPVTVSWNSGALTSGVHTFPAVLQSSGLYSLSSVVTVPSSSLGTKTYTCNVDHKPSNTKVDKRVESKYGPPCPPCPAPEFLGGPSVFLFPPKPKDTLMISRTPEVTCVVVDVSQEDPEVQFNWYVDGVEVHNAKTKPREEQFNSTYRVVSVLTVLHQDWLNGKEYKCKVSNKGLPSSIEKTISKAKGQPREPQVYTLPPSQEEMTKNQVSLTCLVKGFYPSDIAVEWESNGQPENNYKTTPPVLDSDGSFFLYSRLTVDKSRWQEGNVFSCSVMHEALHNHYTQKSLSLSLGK
VL: B1 VL with A2P
notes: IgG4 S228P with the X02.1 VH; VL A2P relative to A02.1
B26: X02.98 (antibody, V domains shown)
VH: B1 VH with L108M, E109D
VL: B1 VL with R31G
notes: IgG4 S228P with the X02.1 VH; VL R29S relative to A02.1
B27: X02.105 (antibody, V domains shown)
VH: B1 VH with L108M, E109D
VL: B1 VL with S100P
notes: IgG4 S228P with the X02.1 VH; VL S92P relative to A02.1
B28: X02.106 (antibody, V domains shown)
VH: B1 VH with L108M, E109D
VL: B1 VL with G103A
notes: IgG4 S228P with the X02.1 VH; VL G95A relative to A02.1
B29: X02.97 (antibody)
heavy: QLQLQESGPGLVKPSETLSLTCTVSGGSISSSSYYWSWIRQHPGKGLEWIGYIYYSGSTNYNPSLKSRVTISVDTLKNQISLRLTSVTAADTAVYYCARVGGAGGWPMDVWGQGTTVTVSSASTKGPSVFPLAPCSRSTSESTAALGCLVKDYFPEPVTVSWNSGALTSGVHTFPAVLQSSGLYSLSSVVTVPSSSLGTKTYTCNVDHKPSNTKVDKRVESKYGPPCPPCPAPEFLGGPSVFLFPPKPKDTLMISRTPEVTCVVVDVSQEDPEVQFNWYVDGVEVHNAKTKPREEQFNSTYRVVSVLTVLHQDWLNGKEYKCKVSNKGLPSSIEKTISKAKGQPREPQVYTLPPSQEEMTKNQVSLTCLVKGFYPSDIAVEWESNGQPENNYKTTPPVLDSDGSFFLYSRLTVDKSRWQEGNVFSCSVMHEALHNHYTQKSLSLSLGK
VL: B1 VL with L10S
notes: IgG4 S228P with the X02.1 VH; VL L11S relative to A02.1
B30: X02.99 (antibody, V domains shown)
VH: B1 VH with L108M, E109D
VL: B1 VL with Y32S
notes: IgG4 S228P with the X02.1 VH; VL Y30S relative to A02.1
B31: X02.100 (antibody, V domains shown)
VH: B1 VH with L108M, E109D
VL: B1 VL with H57D
notes: IgG4 S228P with the X02.1 VH; VL H(54A)D relative to A02.1
B32: X02.104 (antibody, V domains shown)
VH: B1 VH with L108M, E109D
VL: B1 VL with T98I
notes: IgG4 S228P with the X02.1 VH; VL T90I relative to A02.1
B33: X02.80 (antibody, V domains shown)
VH: B1 VH with L108M, E109D
VL: B1 VL with N102Q
notes: IgG4 S228P with the X02.1 VH; VL N94Q relative to A02.1
B34: X02.81 (antibody, V domains shown)
VH: B1 VH with L108M, E109D
VL: B1 VL with N77A
notes: IgG4 S228P with the X02.1 VH; VL N69A relative to A02.1
B35: X02.87 (antibody, V domains shown)
VH: B1 VH with L108M, E109D
VL: B1 VL with S104A
notes: IgG4 S228P with the X02.1 VH; VL S96A relative to A02.1
B36: X02.90 (antibody, V domains shown)
VH: B1 VH with L108M, E109D
VL: B1 VL with N102T
notes: IgG4 S228P with the X02.1 VH; VL N94T relative to A02.1
B37: X02.93 (antibody, V domains shown)
VH: B1 VH with L108M, E109D
VL: B1 VL with M97I
notes: IgG4 S228P with the X02.1 VH; VL M89I relative to A02.1
B38: X02.94 (antibody, V domains shown)
VH: B1 VH with L108M, E109D
VL: B1 VL with M97L
notes: IgG4 S228P with the X02.1 VH; VL M89L relative to A02.1

These binders were tested against T1, Human CD38 (human, UniProt P28907 43-300) (assay: SPR (Biacore), antibody from supernatant captured on Protein A, human CD38 injected, 1:1 fit).
Procedure: (§1) The capacity of anti-CD38 antibodies and anti-CD38-attenuated IFN fusion proteins to bind to human CD38 were measured using unpurified transfected cell supernatant prepared 7:1 with Non Specific Binding Reducer (GE Healthcare, Piscataway, N.J.). […] FC2 (or FC4) was used as a reference throughout the experiments. The experiments were run at 37° C. in HBS-P+ buffer (0.01 M HEPES, 0.15 M NaCl, 0.005% v/v Surfactant P20, pH 7.4). At a flow rate of 20 l/min, both flow cells were regenerated with 10 μL 50 mM sodium hydroxide before 40 μL supernatant containing the protein was passed over FC1 (or FC3) only. 301 μL of CD38 (10 g/mL in running buffer) or 30 μL running buffer was injected over FC1 and FC2 with a 5 minute dissociation time. Both surfaces were regenerated twice with sodium hydroxide. Results were generated using the BIAevaluation software provided with the machine. Microsoft Excel was used for calculations. BIAevaluation software automatically subtracted the reference sensorgram giving a trace of FC2-1 (or FC4-3) for each sample. A double reference was performed for each antibody tested by subtracting the sensorgram with a CD38 injection from the sensorgram with a blank running buffer injection. […] BIAevalution was used to fit the sensorgram using a Langmuir 1:1 equation in order to generate an equilibrium association constant (KD)

| Binder | Kd [nM] |
| --- | --- |
| B1 | 0.0685 |
| B2 | 0.000158 |
| B3 | 0.00911 |

Biological target: T1, Human CD38
Assay: as above
Remark: another data set of the same source
Procedure: as §1

| Binder | Kd [nM] |
| --- | --- |
| B4 | 0.0106 |
| B5 | 3.54 |
| B6 | 1.63 |
| B7 | 0.385 |
| B8 | 0.638 |

The binders below were run against T2, Human CD38 on CD38-positive myeloma cells (ARP-1, H929) (human, UniProt P28907 43-300) (assay: flow cytometry, ARP-1 cells (CD38-positive)).
T2 construct: Endogenous CD38 on the human myeloma cell lines ARP-1 and H929, used in flow cytometry; also called NCI-H929
Procedure: (§2) The ability of the antibodies or antibody-interferon constructs to bind the human CD38-positive myeloma cell lines ARP-1 or H929 in flow cytometry-based assays was tested. ARP-1 cells or H929 cells (5×10⁵, as judged by trypan blue exclusion) were incubated with each protein or with a human IgG4 monoclonal antibody with irrelevant specificity protein construct at various concentrations in 50 μL of FACS buffer (PBS plus 1% fetal calf serum, FCS, 0.2M HEPES, 0.5M EDTA) in 96 well plates for 60 minutes on ice in the dark. Cells were washed three times with FACS buffer before incubation for 30 minutes in 50 μL of FACS buffer containing goat anti-human IgG (Fc-specific, conjugated to fluorescein isothiocyanate, FITC; Sigma-Aldrich, St. Louis, Mo.). After washing three times with FACS buffer, cells were fixed with 50 μL of PBS containing 4% formaldehyde v/v and incubated at 4° C. in the dark for 16 hours. Incubated cells in suspension were diluted with an additional 150 μL of FACS buffer and analyzed for binding by flow cytometry on a FACS Canto II (BD Biosciences, San Diego, Calif.) using forward scatter, side scatter and fluorescence intensity in the FITC channel. The value reported is the mean fluorescence intensity (MFI).

| Binder | EC50 [µg/mL] |
| --- | --- |
| B9 | 18.1 |
| B10 | 18.3 |

Biological target: T2, Human CD38 on CD38-positive myeloma …
Assay: flow cytometry, ARP-1 cells (CD38-positive)
Remark: another data set of the same source
Procedure: The ability of the antibodies or antibody-interferon constructs to bind the human CD38-positive myeloma cell lines ARP-1 or H929 in flow cytometry-based assays was tested. ARP-1 cells or H929 cells (5×10⁵, as judged by trypan blue exclusion) were incubated with each protein or with a human IgG4 monoclonal antibody with irrelevant specificity protein construct at various concentrations in 50 μL of FACS buffer (PBS plus 1% fetal calf serum, FCS, 0.2M HEPES, 0.5M EDTA) in 96 well plates for 60 minutes on ice in the dark. Cells were washed three times with FACS buffer before incubation for 30 minutes in 50 μL of FACS buffer containing goat anti-human IgG (Fc-specific, conjugated to fluorescein isothiocyanate, FITC; Sigma-Aldrich, St. Louis, Mo.). After washing three times with FACS buffer, cells were fixed with 50 μL of PBS containing 4% formaldehyde v/v and incubated at 4° C. in the dark for 16 hours. Incubated cells in suspension were diluted with an additional 150 μL of FACS buffer and analyzed for binding by flow cytometry on a FACS Canto II (BD Biosciences, San Diego, Calif.) using forward scatter, side scatter and fluorescence intensity in the FITC channel.

| Binder | EC50 [µg/mL] |
| --- | --- |
| B11 | 8.2 |
| B12 | 6.3 |
| B13 | 3.8 |

Biological target: T1, Human CD38
Assay: SPR (Biacore), antibody from supernatant captured on Protein A, human CD38 injected, 1:1 fit
Remark: another data set of the same source
Procedure: as §1

| Binder | Kd [nM] |
| --- | --- |
| B14 | 26.3 |
| B15 | 20.7 |
| B9 | 23.9 |
| B16 | 26.3 |
| B17 | 20.7 |
| B10 | 23 |

Biological target: T1, Human CD38
Assay: as above
Remark: another data set of the same source
Procedure: as §1

| Binder | Kd [nM] |
| --- | --- |
| B11 | 2.69 |
| B18 | 4.28 |
| B19 | 0.707 |
| B12 | 0.27 |

Biological target: T1, Human CD38
Assay: as above
Remark: another data set of the same source
Procedure: as §1

| Binder | Kd [nM] |
| --- | --- |
| B20 | 0.129 |

Biological target: T2, Human CD38 on CD38-positive myeloma …
Assay: flow cytometry, ARP-1 cells (CD38-positive)
Remark: another data set of the same source
Procedure: Antibodies purified from CHO cell supernatants were subsequently tested in flow cytometry-based binding assays to the CD38 positive cell line ARP-1.
as §2

| Binder | EC50 [µg/mL] |
| --- | --- |
| B21 | 13.7 |
| B22 | 20.4 |
| B23 | 30 |
| B24 | 9.4 |

Biological target: T1, Human CD38
Assay: SPR (Biacore), antibody from supernatant captured on Protein A, human CD38 injected, 1:1 fit
Remark: another data set of the same source
Procedure: as §1

| Binder | Kd [nM] |
| --- | --- |
| B25 | 0.0044 |
| B26 | 0.00584 |
| B21 | 0.0289 |
| B22 | 0.12 |
| B27 | 33.1 |
| B28 | 44.7 |
| B23 | 0.25 |
| B29 | 0.00751 |
| B30 | 0.00321 |
| B31 | 160 |
| B24 | 1.28 |
| B32 | 10 |

Biological target: T2, Human CD38 on CD38-positive myeloma …
Assay: flow cytometry, ARP-1 cells (CD38-positive)
Remark: another data set of the same source
Procedure: These heavy chain variable regions were formatted on an IgG4 constant region containing an S228P substitution.
as §2

| Binder | EC50 [µg/mL] |
| --- | --- |
| B5 | 7.2 |
| B6 | 3.6 |
| B7 | 4.3 |
| B8 | 4.9 |

Biological target: T1, Human CD38
Assay: SPR (Biacore), antibody from supernatant captured on Protein A, human CD38 injected, 1:1 fit
Remark: another data set of the same source
Procedure: as §1

| Binder | Kd [nM] |
| --- | --- |
| B33 | 1.44 |
| B34 | 0.267 |
| B35 | 1.99 |
| B36 | 0.552 |
| B37 | 0.0256 |
| B38 | 0.00348 |
